# Experimental data as given in article PMC8452709, “Effects of apolipoprotein E isoform, sex, and diet on insulin BBB pharmacokinetics in mice” (Scientific Reports, 2021).
# Columns and labels:
# brain endothelial cell = assay: 125I-insulin reversible vascular binding (Vi), y-intercept of multiple-time regression; format: in vivo, mice (human E3- and E4-targeted replacement); details: for Vi, reversible vascular binding: 15 mo, iv, albumin-corrected
# Experimental: (§1) Ten micrograms of human insulin (Sigma-Aldrich, St. Louis, MO, USA) was diluted in 0.25 M chloride-free sodium phosphate buffer (PB), pH 7.5, and radioactivity labeled with 0.5–1 mCi Na^125I (Perkin Elmer, Waltham, MA, USA) using the chloramine-T (Sigma-Aldrich) method similar to our previously reported methods. […] Protein labelling by ^125I or by ^99mTc isotopes was characterized by 15% trichloroacetic acid (TCA) precipitation.
# (§2) Mice were anesthetized with an intraperitoneal injection of 0.1–0.15 ml 40% urethane to minimize pain and distress. […] Blood from the left carotid artery was collected between 0.5 and 10 min after intravenous injection. Mice were immediately decapitated and their whole brains quickly removed and weighed. Each mouse provided a single blood sample and time matched brain sample. The arterial blood was centrifuged at 5400g for 10 min at 4 °C and serum collected. The brains were dissected into regions according to the method described in Ref.[56] and weighed. The levels of radioactivity in serum (50 μl) and brain regions were counted in a gamma counter (Wizard2, Perkin Elmer, Waltham, MA). […] Expt was calculated from the formula:1 Exposuretime=∫0tCptdt/Cpt, where Cp is the level of radioactivity (cpm) in serum at time (t). Expt corrects for the clearance of peptide from the blood. The influx of insulin was calculated by multiple-time regression analysis as described by Patlaket al.[55],[57]:2 Am/Cpt=Ki∫0tCptdt/Cpt+Vi, where Am is level of radioactivity (cpm) per g of brain tissue at time t, Cpt is the level of radioactivity (cpm) per ml arterial serum at time t, Ki (μl/g-min) is the steady-state rate of unidirectional solute influx from blood to brain. Vi (μl/g) is the level of rapid and reversible binding for brain which usually is a combination of vascular space plus any brain endothelial cell receptor binding. The brain/serum (B/S) ratios for insulin were corrected for vascular space by subtracting the corresponding ratio for albumin, yielding a delta B/S ratio. The linear portion of the relation between the delta B/S ratio versus Expt was used to calculate the Ki (μl/g-min) with its standard error term, and the y-intercept determined as representation of the Vi (μl/g)[55].
# (§3) As a priori sex differences were expected, male and female data were analyzed separately. Regression analyses and other statistical analyses were performed with Prism 8.0 (GraphPad Software Inc., San Diego, CA, USA) and SPSS (Chicago, IL) software. Brain weight means are reported with their standard error terms and analyzed using two-way analysis of variance (ANOVA) followed by Sidak’s post hoc test when appropriate. For pharmacokinetic studies, the slope of the linear regression lines (Ki), reported with their correlation coefficients (r), and y-intercepts (Vi) were compared statistically using the Prism software, as described.
# [1] = system: blood–brain barrier (BBB); assay: 125I-insulin BBB transport, multiple-time regression analysis (Ki); format: in vivo, mice (human E3- and E4-targeted replacement); details: for Ki, linear BBB transport (unidirectional influx rate): 15 mo, iv, albumin-corrected
# Experimental: as §1, §2, §3
# [2] = female E3 HFD mice, hippocampus
# [3] = female E3 HFD mice, parietal cortex
# [4] = female E3 HFD mice, pons/medulla
# [5] = female E3 LFD mice, hippocampus
# [6] = female E3 LFD mice, pons/medulla
# [7] = female E4 HFD mice, frontal cortex
# [8] = female E4 HFD mice, pons/medulla
# [9] = female E4 LFD mice, hypothalamus
# [10] = female E4 LFD mice, pons/medulla
# [11] = male E3 HFD mice, occipital cortex
# [12] = male E3 LFD mice, occipital cortex
# [13] = male E3 LFD mice, olfactory bulb
# [14] = male E4 LFD mice, parietal cortex
substance,measurement,setting,value
125I-insulin: human insulin (Sigma-Aldrich) radioactively labeled with Na125I by the chloramine-T method,"Vi, reversible vascular binding",brain endothelial cell; [2],5.8 µL/g
same,"Vi, reversible vascular binding","brain endothelial cell; female E3 HFD mice, midbrain",2.1 µL/g
same,"Vi, reversible vascular binding",brain endothelial cell; [3],2.3 µL/g
same,"Vi, reversible vascular binding",brain endothelial cell; [4],4.4 µL/g
same,"Vi, reversible vascular binding","brain endothelial cell; female E3 LFD mice, frontal cortex",6.3 µL/g
same,"Vi, reversible vascular binding",brain endothelial cell; [5],5.1 µL/g
same,"Vi, reversible vascular binding","brain endothelial cell; female E3 LFD mice, hypothalamus",-0.2 µL/g
same,"Vi, reversible vascular binding","brain endothelial cell; female E3 LFD mice, olfactory bulb",11.7 µL/g
same,"Vi, reversible vascular binding",brain endothelial cell; [6],7.9 µL/g
same,"Vi, reversible vascular binding","brain endothelial cell; female E3 LFD mice, striatum",4.0 µL/g
same,"Vi, reversible vascular binding","brain endothelial cell; female E3 LFD mice, thalamus",8.4 µL/g
same,"Vi, reversible vascular binding",brain endothelial cell; [7],5.2 µL/g
same,"Vi, reversible vascular binding","brain endothelial cell; female E4 HFD mice, occipital cortex",4.1 µL/g
same,"Vi, reversible vascular binding",brain endothelial cell; [8],3.0 µL/g
same,"Vi, reversible vascular binding","brain endothelial cell; female E4 LFD mice, hippocampus",8.8 µL/g
same,"Vi, reversible vascular binding",brain endothelial cell; [9],4.4 µL/g
same,"Vi, reversible vascular binding","brain endothelial cell; female E4 LFD mice, midbrain",5.4 µL/g
same,"Vi, reversible vascular binding","brain endothelial cell; female E4 LFD mice, occipital cortex",3.9 µL/g
same,"Vi, reversible vascular binding","brain endothelial cell; female E4 LFD mice, parietal cortex",7.9 µL/g
same,"Vi, reversible vascular binding",brain endothelial cell; [10],9.4 µL/g
same,"Vi, reversible vascular binding","brain endothelial cell; female E4 LFD mice, striatum",6.3 µL/g
same,"Vi, reversible vascular binding","brain endothelial cell; female E4 LFD mice, thalamus",8.8 µL/g
same,"Vi, reversible vascular binding",brain endothelial cell; [11],0.2 µL/g
same,"Vi, reversible vascular binding","brain endothelial cell; male E3 HFD mice, olfactory bulb",0.4 µL/g
same,"Vi, reversible vascular binding","brain endothelial cell; male E3 HFD mice, pons/medulla",1.7 µL/g
same,"Vi, reversible vascular binding","brain endothelial cell; male E3 HFD mice, thalamus",2.3 µL/g
same,"Vi, reversible vascular binding","brain endothelial cell; male E3 LFD mice, frontal cortex",4.0 µL/g
same,"Vi, reversible vascular binding",brain endothelial cell; [12],5.0 µL/g
same,"Vi, reversible vascular binding",brain endothelial cell; [13],5.9 µL/g
same,"Vi, reversible vascular binding","brain endothelial cell; male E3 LFD mice, parietal cortex",5.8 µL/g
same,"Vi, reversible vascular binding","brain endothelial cell; male E4 HFD mice, pons/medulla",3.4 µL/g
same,"Vi, reversible vascular binding","brain endothelial cell; male E4 HFD mice, striatum",4.2 µL/g
same,"Vi, reversible vascular binding","brain endothelial cell; male E4 LFD mice, cerebellum",8.1 µL/g
same,"Vi, reversible vascular binding","brain endothelial cell; male E4 LFD mice, hypothalamus",8.0 µL/g
same,"Vi, reversible vascular binding","brain endothelial cell; male E4 LFD mice, occipital cortex",4.1 µL/g
same,"Vi, reversible vascular binding",brain endothelial cell; [14],3.4 µL/g
same,"Vi, reversible vascular binding","brain endothelial cell; male E4 LFD mice, striatum",4.4 µL/g
same,"Vi, reversible vascular binding","brain endothelial cell; male E4 LFD mice, thalamus",4.1 µL/g
same,"Whole brain reversible vascular binding (Vi, y-axis intercept)","brain endothelial cell; males, between apoE isoform/diet groups, p = 0.002",differences
same,"Ki, linear BBB transport (unidirectional influx rate)","[1]; female E3 HFD mice, cerebellum",1.34 µL/g/min
same,"Ki, linear BBB transport (unidirectional influx rate)",[1]; [2],0.96 µL/g/min
same,"Ki, linear BBB transport (unidirectional influx rate)","[1]; female E3 HFD mice, occipital cortex",1.03 µL/g/min
same,"Ki, linear BBB transport (unidirectional influx rate)","[1]; female E3 HFD mice, olfactory bulb",1.19 µL/g/min
same,"Ki, linear BBB transport (unidirectional influx rate)",[1]; [3],0.95 µL/g/min
same,"Ki, linear BBB transport (unidirectional influx rate)",[1]; [4],1.31 µL/g/min
same,"Ki, linear BBB transport (unidirectional influx rate)","[1]; female E3 HFD mice, striatum",1.32 µL/g/min
same,"Ki, linear BBB transport (unidirectional influx rate)","[1]; female E3 HFD mice, thalamus",0.91 µL/g/min
same,"Ki, linear BBB transport (unidirectional influx rate)","[1]; female E3 LFD mice, cerebellum",1.17 µL/g/min
same,"Ki, linear BBB transport (unidirectional influx rate)",[1]; [5],1.43 µL/g/min
same,"Ki, linear BBB transport (unidirectional influx rate)","[1]; female E3 LFD mice, midbrain",0.78 µL/g/min
same,"Ki, linear BBB transport (unidirectional influx rate)","[1]; female E3 LFD mice, occipital cortex",0.73 µL/g/min
same,"Ki, linear BBB transport (unidirectional influx rate)","[1]; female E3 LFD mice, olfactory bulb, no significant transport (p > 0.05)",1.06 µL/g/min
same,"Ki, linear BBB transport (unidirectional influx rate)","[1]; female E3 LFD mice, parietal cortex, no significant transport (p > 0.05)",0.64 µL/g/min
same,"Ki, linear BBB transport (unidirectional influx rate)",[1]; [6],0.91 µL/g/min
same,"Ki, linear BBB transport (unidirectional influx rate)","[1]; female E3 LFD mice, striatum",0.56 µL/g/min
same,"Ki, linear BBB transport (unidirectional influx rate)","[1]; female E3 LFD mice, thalamus, no significant transport (p > 0.05)",0.71 µL/g/min
same,"Ki, linear BBB transport (unidirectional influx rate)","[1]; female E4 HFD mice, cerebellum",1.04 µL/g/min
same,"Ki, linear BBB transport (unidirectional influx rate)",[1]; [7],0.62 µL/g/min
same,"Ki, linear BBB transport (unidirectional influx rate)","[1]; female E4 HFD mice, hypothalamus",1.41 µL/g/min
same,"Ki, linear BBB transport (unidirectional influx rate)","[1]; female E4 HFD mice, olfactory bulb",1.34 µL/g/min
same,"Ki, linear BBB transport (unidirectional influx rate)","[1]; female E4 HFD mice, parietal cortex",0.92 µL/g/min
same,"Ki, linear BBB transport (unidirectional influx rate)",[1]; [8],1.27 µL/g/min
same,"Ki, linear BBB transport (unidirectional influx rate)","[1]; female E4 HFD mice, striatum, no significant transport (p > 0.05)",0.85 µL/g/min
same,"Ki, linear BBB transport (unidirectional influx rate)","[1]; female E4 LFD mice, cerebellum",1.63 µL/g/min
same,"Ki, linear BBB transport (unidirectional influx rate)",[1]; [9],1.12 µL/g/min
same,"Ki, linear BBB transport (unidirectional influx rate)","[1]; female E4 LFD mice, midbrain",0.50 µL/g/min
same,"Ki, linear BBB transport (unidirectional influx rate)",[1]; [10],0.81 µL/g/min
same,"Ki, linear BBB transport (unidirectional influx rate)","[1]; female E4 LFD mice, striatum, no significant transport (p > 0.05)",0.30 µL/g/min
same,Whole brain BBB transport or vascular binding,"[1]; females, effect of genotype or diet",no differences
same,"Ki, linear BBB transport (unidirectional influx rate)","[1]; male E3 HFD mice, cerebellum",1.08 µL/g/min
same,"Ki, linear BBB transport (unidirectional influx rate)","[1]; male E3 HFD mice, hippocampus, no significant transport (p > 0.05)",1.08 µL/g/min
same,"Ki, linear BBB transport (unidirectional influx rate)","[1]; male E3 HFD mice, hypothalamus, no significant transport (p > 0.05)",0.57 µL/g/min
same,"Ki, linear BBB transport (unidirectional influx rate)","[1]; male E3 HFD mice, midbrain, no significant transport (p > 0.05)",0.96 µL/g/min
same,"Ki, linear BBB transport (unidirectional influx rate)",[1]; [11],0.88 µL/g/min
same,"Ki, linear BBB transport (unidirectional influx rate)","[1]; male E3 HFD mice, parietal cortex, no significant transport (p > 0.05)",-0.07 µL/g/min
same,"Ki, linear BBB transport (unidirectional influx rate)","[1]; male E3 HFD mice, striatum, no significant transport (p > 0.05)",0.04 µL/g/min
same,"Ki, linear BBB transport (unidirectional influx rate)","[1]; male E3 HFD mice, thalamus, no significant transport (p > 0.05)",0.65 µL/g/min
same,"Ki, linear BBB transport (unidirectional influx rate)","[1]; male E3 LFD mice, cerebellum",1.06 µL/g/min
same,"Ki, linear BBB transport (unidirectional influx rate)","[1]; male E3 LFD mice, hippocampus",0.92 µL/g/min
same,"Ki, linear BBB transport (unidirectional influx rate)","[1]; male E3 LFD mice, hypothalamus",1.22 µL/g/min
same,"Ki, linear BBB transport (unidirectional influx rate)","[1]; male E3 LFD mice, midbrain",0.40 µL/g/min
same,"Ki, linear BBB transport (unidirectional influx rate)",[1]; [12],0.75 µL/g/min
same,"Ki, linear BBB transport (unidirectional influx rate)",[1]; [13],1.28 µL/g/min
same,"Ki, linear BBB transport (unidirectional influx rate)","[1]; male E3 LFD mice, pons/medulla",1.41 µL/g/min
same,"Ki, linear BBB transport (unidirectional influx rate)","[1]; male E3 LFD mice, striatum, no significant transport (p > 0.05)",0.59 µL/g/min
same,"Ki, linear BBB transport (unidirectional influx rate)","[1]; male E3 LFD mice, thalamus, no significant transport (p > 0.05)",0.56 µL/g/min
same,"Ki, linear BBB transport (unidirectional influx rate)","[1]; male E4 HFD mice, hippocampus, no significant transport (p > 0.05)",0.36 µL/g/min
same,"Ki, linear BBB transport (unidirectional influx rate)","[1]; male E4 HFD mice, hypothalamus, no significant transport (p > 0.05)",0.35 µL/g/min
same,"Ki, linear BBB transport (unidirectional influx rate)","[1]; male E4 HFD mice, pons/medulla",0.65 µL/g/min
same,"Ki, linear BBB transport (unidirectional influx rate)","[1]; male E4 HFD mice, striatum, no significant transport (p > 0.05)",-0.12 µL/g/min
same,"Ki, linear BBB transport (unidirectional influx rate)","[1]; male E4 LFD mice, frontal cortex",0.65 µL/g/min
same,"Ki, linear BBB transport (unidirectional influx rate)","[1]; male E4 LFD mice, hippocampus",1.28 µL/g/min
same,"Ki, linear BBB transport (unidirectional influx rate)","[1]; male E4 LFD mice, hypothalamus, no significant transport (p > 0.05)",0.46 µL/g/min
same,"Ki, linear BBB transport (unidirectional influx rate)","[1]; male E4 LFD mice, midbrain",0.53 µL/g/min
same,"Ki, linear BBB transport (unidirectional influx rate)",[1]; [14],0.73 µL/g/min
same,"Ki, linear BBB transport (unidirectional influx rate)","[1]; male E4 LFD mice, striatum, no significant transport (p > 0.05)",0.57 µL/g/min
same,Whole brain BBB transport rate (Ki),"[1]; males, decreases due to HFD, p = 0.056",did not reach significance
